# B1: His-IQGAP1 C794 (C-terminal 794 amino acids of IQ motif-containing GTPase-activating protein 1) (domain or fragment)
# chain: PPMVVVRKFVHLLDQSDQDFQEELDLMKMREEVITLIRSNQQLENDLNLMDIKIGLLVKNKITLQDVVSHSKKLTKKNKEQLSDMMMINKQKGGLKALSKEKREKLEAYQHLFYLLQTNPTYLAKLIFQMPQNKSTKFMDSVIFTLYNYASNQREEYLLLRLFKTALQEEIKSKVDQIQEIVTGNPTVIKMVVSFNRGARGQNALRQILAPVVKEIMDDKSLNIKTDPVDIYKSWVNQMESQTGEASKLPYDVTPEQALAHEEVKTRLDSSIRNMRAVTDKFLSAIVSSVDKIPYGMRFIAKVLKDSLHEKFPDAGEDELLKIIGNLLYYRYMNPAIVAPDAFDIIDLSAGGQLTTDQRRNLGSIAKMLQHAASNKMFLGDNAHLSIINEYLSQSYQKFRRFFQTACDVPELQDKFNVDEYSDLVTLTKPVIYISIGEIINTHTLLLDHQDAIAPEHNDPIHELLDDLGEVPTIESLIGESSGNLNDPNKEALAKTEVSLTLTNKFDVPGDENAEMDARTILLNTKRLIVDVIRFQPGETLTEILETPATSEQEAEHQRAMQRRAIRDAKTPDKMKKSKSVKEDSNLTLQEKKEKIQTGLKKLTELGTVDPKNKYQELINDIARDIRNQRRYRQRRKAELVKLQQTYAALNSKATFYGEQVDYYKSYIKTCLDNLASKGKVSKKPREMKGKKSKKISLKYTAARLHEKGVLLEIEDLQVNQFKNVIFEISPTEEVGDFEVKAKFMGVQMETFMLHYQDLLQLQYEGVAVMKLFDRAKVNVNLLIFLLNKKFYGK
# B2: GST-GDI1 (guanosine dissociation inhibitor 1, full-length) (natural protein)
# chain: MAEQEPTAEQLAQIAAENEEDEHSVNYKPPAQKSIQEIQELDKDDESLRKYKEALLGRVAVSADPNVPNVVVTGLTLVCSSAPGPLELDLTGDLESFKKQSFVLKEGVEYRIKISFRVNREIVSGMKYIQHTYRKGVKIDKTDYMVGSYGPRAEEYEFLTPVEEAPKGMLARGSYSIKSRFTDDDKTDHLSWEWNLTIKKDWKD
# How the values were obtained:
# [1] = target: T1, RAC1^WT (Ras-related C3 botulinum toxin substrate 1, wild type), purified (human, UniProt P63000 1-192); assay: mGppNHp-bound RAC1
# RAC1^F28L, purified [2] = target: T2, RAC1^F28L, purified (human, UniProt P63000 1-192, F28L); assay: mGppNHp-bound RAC1
# RAC1^P29S, purified = RAC1^P29S, purified (human, UniProt P63000 1-192, P29S); assay: mGppNHp-bound RAC1
# RAC1^T17N, purified [3] = target: T3, RAC1^T17N, purified (human, UniProt P63000 1-192, T17N); assay: mGppNHp-bound RAC1
# [4] = target: T1, RAC1^WT (Ras-related C3 botulinum toxin …); assay: mdGDP-bound RAC1
# RAC1^F28L, purified [5] = target: T2, RAC1^F28L, purified; assay: mdGDP-bound RAC1
# RAC1^T17N, purified [6] = target: T3, RAC1^T17N, purified; assay: mdGDP-bound RAC1
Binder,koff [1] [s⁻¹],"koff (RAC1^F28L, purified [2]) [s⁻¹]","koff (RAC1^P29S, purified) [s⁻¹]","koff (RAC1^T17N, purified [3]) [s⁻¹]",koff [4] [s⁻¹],"koff (RAC1^F28L, purified [5]) [s⁻¹]","koff (RAC1^T17N, purified [6]) [s⁻¹]"
B1,0.404,0.206,0.138,0.0142,–,–,–
B2,–,–,–,–,0.693,1.03,0.038

# Reference: article PMC12702776 (2025)
